Data from US20200123254A1 (LENTIGEN TECHNOLOGY, published 2020).
Where a chain is given by its changes, count along the chain named.

T1: CD19-Fc peptide (R&D, Minneapolis, Minn.) (UniProt P15391 20-291)
T1 construct: Bought reagent; also called recombinant CD19-Fc peptide; not shown: Fc part; bought reagent, detected with anti-human Fc F(ab')2-AF647
T1 sequence (looked up): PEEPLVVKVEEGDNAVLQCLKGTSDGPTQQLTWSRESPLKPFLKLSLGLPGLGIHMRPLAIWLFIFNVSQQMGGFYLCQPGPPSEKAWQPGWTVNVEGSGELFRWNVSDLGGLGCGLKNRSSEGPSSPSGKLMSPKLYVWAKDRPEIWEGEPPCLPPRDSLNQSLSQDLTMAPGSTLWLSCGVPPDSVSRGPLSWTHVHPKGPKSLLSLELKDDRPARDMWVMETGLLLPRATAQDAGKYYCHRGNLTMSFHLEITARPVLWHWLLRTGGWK

B1: LTG2068 (LP-M19217-23-CD8 TM-41BB-CD3 zeta) CAR (other)
chain: EVQLVQSGAEVKKPGASVKVSCKASGYTFTGYYMHWVRQAPGQGLEWIGLINPSGGSTSYEQKFQGRVAMTRDTSTSTVYMELSSLRSEDTAVYYCARSDRGITATDAFDIWGQGTMVTVSSGGGGSGGGGSGGGGSQSVLTQPPSVSVAPGQTAKITCGGSDIGDKNVHWYQQKPGQAPVLVVYDDYDRPSGIPERFSGSNSGDAATLTISTVEVGDEADYFCQVWDGIGDPYWVFGGGTQLTVLGAAATTTPAPRPPTPAPTIASQPLSLRPEACRPAAGGAVHTRGLDFACDIYIWAPLAGTCGVLLLSLVITLYCKRGRKKLLYIFKQPFMRPVQTTQEEDGCSCRFPEEEEGGCELRVKFSRSADAPAYQQGQNQLYNELNLGRREEYDVLDKRRGRDPEMGGKPRRKNPQEGLYNELQKDKMAEAYSEIGMKGERRRGKGHDGLYQGLSTATKDTYDALHMQALPPR
notes: Chimeric antigen receptor on the surface of transduced primary human T cells; also called ScFv5-CD8TM-4-1BB-CD3 zeta
B2: LTG2070 (LP-M19217-38-CD8 TM-41BB-CD3 zeta) CAR (other)
chain: EVQLVQSGAEVKRPGASVKVSCKASGYTFTSYYMHWVRQAPGRGLEWMGLINPSGGSTSYAQEFQGRVTMTRDMSTSTVYMELSSLRSEDTAVYYCARSDRGISATDAFDIWGQGTMVTVSSGGGGSGGGGSGGGGSQSVLTQPPSVSVAPGQMAKITCGGSDIGNKNVHWYQQKPGQAPVLVVYDDYNRPSGIPERFSGSNSGDAATLTISTVEVGDEADYFCQVWDGSGDPYWVFGGGTQLTDLGAAATTTPAPRPPTPAPTIASQPLSLRPEACRPAAGGAVHTRGLDFACDIYIWAPLAGTCGVLLLSLVITLYCKRGRKKLLYIFKQPFMRPVQTTQEEDGCSCRFPEEEEGGCELRVKFSRSADAPAYQQGQNQLYNELNLGRREEYDVLDKRRGRDPEMGGKPRRKNPQEGLYNELQKDKMAEAYSEIGMKGERRRGKGHDGLYQGLSTATKDTYDALHMQALPPR
notes: Chimeric antigen receptor on the surface of transduced primary human T cells; also called ScFv7-CD8TM-4-1BB-CD3 zeta
B3: LTG2069 (LP-M19217-29-CD8 TM-41BB-CD3 zeta) CAR (other)
chain: B1 chain with G31S, I48M, L50M, E61A, A69T, D166N, V169A, P195S, I230S, Y234F
notes: Chimeric antigen receptor on the surface of transduced primary human T cells; also called ScFv6-CD8TM-4-1BB-CD3 zeta
B4: LTG2071 (LP-M19217-40-CD8 TM-41BB-CD3 zeta) CAR (other)
chain: B1 chain with K13R, G31S, E46V, I48M, E61A, A69T, I157T, D166N, F223V, I230S
notes: Chimeric antigen receptor on the surface of transduced primary human T cells; also called ScFv8-CD8TM-4-1BB-CD3 zeta

Target: T1, CD19-Fc peptide (R&D, Minneapolis, …)
Experiment: flow cytometry of CAR-transduced primary human T cells stained with CD19-Fc then anti Fc-AF647; untransduced T cells set as 0%
Experimental: FIG. 3 depicts anti-CD19 CAR surface expression in primary human T cells. CAR T cells redirected to CD19 tumor antigen via the use of ScFv domains (as listed in each panel) were generated by lentiviral transduction with CAR expression constructs. CART detection was performed by flow cytometry. T cells were washed twice in cold PBS-EDTA buffer and stained with CD19-Fc peptide followed by anti Fc-AF647 reagent. At least 20,000 cells were acquired for each analysis. Cells were gated based on forward scatter and side scatter, singlet discrimination, and 7AAD negativity so that only viable cells were analyzed. Data were acquired on MACSQuant 10 flow cytometer in the APC channel. UTD, un-transduced negative control cells. The marker in each panel identifies the CAR-expressing population, and are listed as percent of total transduced T cells analyzed.
For cell staining, half a million CAR T transduced cells were harvested from culture, washed two times in cold AutoMACS buffer supplemented with 0.5% bovine serum albumin (Miltenyi Biotec), and CAR surface expression detected by staining with CD19-Fc peptide (R&D, Minneapolis, Minn.) followed by anti Fc-AF647 conjugate (Jackson ImmunoResearch, West Grove, Pa.). Non-transduced cells were used as negative controls. Dead cells in all studies were excluded by 7AAD staining (BD Biosciences, San Jose, Calif.). Cells were washed twice and resuspended in 200 ul Staining Buffer before quantitative analysis by flow cytometry. Flow cytometric analysis was performed on a MACSQuant®10 Analyzer (Miltenyi Biotec), and data plots were generated using FlowJo software (Ashland, Oreg.).
T cells were activated on culture Day 0 with TransAct T cell reagent (active engagement of CD3 and CD28 antigens, Miltenyi Biotec, Inc.) in the presence of IL-2 as described in Materials and Methods. On culture Day 8-10, expression of anti-CD19 CARs on T cell surface was detected by CD19-Fc peptide followed by anti Fc-AF647 and analyzed by flow cytometry.

Binder	CAR expression level (percent of transduced T cells stained by CD19-Fc)
B1	54%
B2	47%
B3	68%
B4	21%
